Test results reported in patent publication US20250099634A1, “METHOD OF TREATING CANCER” (Novartis AG, priority 2023, published 2025).

How the values were obtained:
[1] = NETTER-2 subject disposition: discontinuation of randomized treatment phase (Full Analysis Set); assay type: in vivo, human
From the text: The discontinuation of either study treatments in both arms (Lutathera or octreotide long-acting) is not a reason for patient's withdrawal either from the clinical/tumor assessments until tumor progression, or for early study termination. However, in case of a patient's withdrawal from the clinical/tumor assessments or early study termination (based on either the patient's or the Investigator's decision), patients will undergo all exams scheduled for the End of Treatment (EOT) visit.
The Full Analysis Set (FAS) comprises all subjects to whom study treatment has been assigned by randomization. According to the intent to treat principle, subjects will be analyzed according to the treatment and strata they have been assigned to during the randomization procedure.

[2] = test system: Grade 2 and Grade 3 advanced GEP-NET; assay: NETTER-2 best overall response, ORR and DCR, central review using RECIST 1.1; assay type: in vivo, human; details: central review, Full Analysis Set
From the text: Objective Response Rate (ORR) will be calculated as the rate of patients with a best overall response of partial response (PR) or complete response (CR). Response duration will be calculated from the time of initial response until documented tumor progression. The Duration of Response (DOR) is defined as the time from initially meeting the criteria for response (CR or PR) until the time of progression by RECIST or death due to underlying disease. DOR will be reported descriptively for each group without comparison between groups.
Overall response rate (ORR) is defined as the proportion of subjects with best overall response (BOR) of complete response (CR) or partial response (PR), as per central review and according to RECIST 1.1.
ORR will be calculated based on the FAS and according to the ITT principle. ORR and its 95% confidence interval will be presented by treatment group. The Cochran-Mantel-Haenszel chi-square test, stratified by the randomization stratification factors, will be used to compare ORR between the two treatment groups, at the 1-sided 2.5% level of significance. As a supportive analysis, ORR as per local review will be presented by treatment group, along with 95% confidence intervals.
More precisely, it counts the presence of at least one confirmed CR or confirmed PR or SD. The DCR will be calculated based on FAS according to the ITT principle. DCR and its 95% confidence interval will be presented by treatment group. The Cochrane-Mantel-Haenszel chi-square test, stratified by the randomization stratification factors, will be used to compare DCR between the two treatment groups, at the one-sided 2.5% level of significance. The p-value to be generated using the Cochrane-Mantel-Haenszel chi-square test is considered nominal, and not to be considered confirmatory as it is not part of the testing strategy. The SAP will advise on how to proceed in case of few events in any stratum.

[3] = NETTER-2 serious adverse events in the randomized treatment period (Safety Set)
From the text: All adverse events (AEs), whether or not spontaneously reported by the patient, will be recorded starting from the signing of the ICF until the end of the Treatment Phase. Safety summaries (tables, figures) include only data from the on-treatment period with the exception of baseline data which will also be summarized where appropriate (e.g. change from baseline summaries). In addition, a separate summary for death including on treatment and post treatment deaths will be provided. In particular, summary tables for adverse events (AEs) will summarize only on-treatment events, with a start date during the on-treatment period (treatment-emergent AEs).
Separate summaries will be provided for study medication related adverse events, death, serious adverse events, other significant adverse events leading to discontinuation and adverse events leading to dose adjustment.

midgut carcinoid tumors = details: NETTER-1, cited from earlier work
[4] = All grades, randomized treatment period, Safety Set
[5] = Grade >=3, randomized treatment period, Safety Set
[6] = randomized treatment period, Safety Set

C[C@@H](O)[C@H](NC(=O)[C@@H]1CSSC[C@H](NC(=O)[C@@H](Cc2ccccc2)NC(=O)CN2CCN(CC(=O)[O-])CCN(CC(=O)[O-])CCN(CC(=O)[O-])CC2)C(=O)N[C@@H](Cc2ccc(O)cc2)C(=O)N[C@H](Cc2c[nH]c3ccccc23)C(=O)N[C@@H](CCCCN)C(=O)N[C@@H]([C@@H](C)O)C(=O)N1)C(=O)O.[177Lu+3] [Lutathera, ^177Lu-DOTA^0-Tyr^3-Octreotate]
8 (5.4) n (%): SAEs Related to Any Treatment [3, 4] | SAEs Related to Lutathera [3, 4]
1 (0.7) n (%): Serious adverse event: Ascites [3, 4] | Serious adverse event: Diarrhoea [3, 4] | Serious adverse event: Intestinal obstruction [3, 4] | Serious adverse event: Oedema peripheral [3, 4] | Serious adverse event: Anaemia [3, 5] | Serious adverse event: Blood bilirubin increased [3, 5] | Serious adverse event: Pyrexia [3, 5] | SAE with fatal outcome: Blood bilirubin increased [3, 6] | SAE with fatal outcome: Dyspnoea [3, 6] | SAE with fatal outcome: Intestinal perforation [3, 6]
5.4%: Serious AEs, Treatment-related ([3]; randomized treatment period)
2 (1.4) n (%): Serious adverse event: Abdominal pain [3, 4] | Serious adverse event: Anaemia [3, 4] | Serious adverse event: Blood bilirubin increased [3, 4] | Serious adverse event: Gastrointestinal stoma complication [3, 4] | Serious adverse event: Pyrexia [3, 4] | Serious adverse event: Abdominal pain [3, 5]
3 (2.0) n (%): Fatal SAEs [3, 4] | Fatal SAEs [3, 5] | SAEs with fatal outcome [3, 6] | SAEs with fatal outcome reported in subjects with primary reason for death = Disease under Study [3, 6]
5 (3.4) (%): Incidence of SAEs: Small intestinal obstruction ([3]; most frequent SAE, summary table)
79%: risk reduction in likelihood of progression or death event (midgut carcinoid tumors; Lutathera versus 60 mg octreotide long-acting)
65 (43.0) n (%): Overall Response Rate (ORR: CR + PR) [2]
21: confirmed events (disease progressions RECIST 1.1 centrally assessed or deaths) (midgut carcinoid tumors)
57 (37.7) n (%): Best Overall Response: Partial Response (PR) [2]
42 (27.8) n (%): Reason for End of Randomized Treatment Phase: Progressive Disease ([1]; Full Analysis Set)
20.4%: Serious AEs ([3]; randomized treatment period)
8 (5.3) n (%): Reason for End of Randomized Treatment Phase: Adverse Event ([1]; human, in vivo) | Best Overall Response: Complete Response (CR) [2] | Best Overall Response: Progressive Disease (PD) [2]
27.8%: discontinuation for progressive disease ([1]; randomized period)
5.3%: Treatment discontinuation due to adverse event ([1]; human, in vivo)
4 (2.6) n (%): Reason for End of Randomized Treatment Phase: Death ([1]; Full Analysis Set)
0 n (%): Best Overall Response: Non-CR/Non-PD [2] | Fatal SAEs Related to Amino Acids [3, 4] | Fatal SAEs Related to Any Treatment [3, 4] | Fatal SAEs Related to Lutathera [3, 4] | Fatal SAEs Related to Octreotide [3, 4] | SAEs Related to Amino Acids [3, 4] | SAEs Related to Octreotide [3, 4] | Serious adverse event: Abdominal sepsis [3, 4] | Serious adverse event: Acute coronary syndrome [3, 4] | Serious adverse event: Acute kidney injury [3, 4] | Serious adverse event: Carcinoid heart disease [3, 4] | Serious adverse event: Carcinoid syndrome [3, 4] | Serious adverse event: Femur fracture [3, 4] | Serious adverse event: Gastroenteritis [3, 4] | Serious adverse event: Generalised oedema [3, 4] | Serious adverse event: Hip fracture [3, 4] | Serious adverse event: Hyperglycaemia [3, 4] | Serious adverse event: Hypertension [3, 4] | Serious adverse event: Hypoalbuminaemia [3, 4] | Serious adverse event: Jaundice [3, 4] | Serious adverse event: Lower gastrointestinal haemorrhage [3, 4] | Serious adverse event: Metabolic encephalopathy [3, 4] | Serious adverse event: Pleurisy [3, 4] | Serious adverse event: Tumour lysis syndrome [3, 4] | Fatal SAEs Related to Amino Acids [3, 5] | Fatal SAEs Related to Any Treatment [3, 5] | Fatal SAEs Related to Lutathera [3, 5] | Fatal SAEs Related to Octreotide [3, 5] | SAEs Related to Amino Acids [3, 5] | SAEs Related to Octreotide [3, 5] | Serious adverse event: Abdominal sepsis [3, 5] | Serious adverse event: Acute coronary syndrome [3, 5] | Serious adverse event: Acute kidney injury [3, 5] | Serious adverse event: Ascites [3, 5] | Serious adverse event: Carcinoid heart disease [3, 5] | Serious adverse event: Carcinoid syndrome [3, 5] | Serious adverse event: Diarrhoea [3, 5] | Serious adverse event: Femur fracture [3, 5] | Serious adverse event: Gastroenteritis [3, 5] | Serious adverse event: Generalised oedema [3, 5] | Serious adverse event: Hip fracture [3, 5] | Serious adverse event: Hyperglycaemia [3, 5] | Serious adverse event: Hypertension [3, 5] | Serious adverse event: Hypoalbuminaemia [3, 5] | Serious adverse event: Intestinal obstruction [3, 5] | Serious adverse event: Jaundice [3, 5] | Serious adverse event: Lower gastrointestinal haemorrhage [3, 5] | Serious adverse event: Metabolic encephalopathy [3, 5] | Serious adverse event: Oedema peripheral [3, 5] | Serious adverse event: Pleurisy [3, 5] | Serious adverse event: Tumour lysis syndrome [3, 5] | SAE with fatal outcome: Diarrhoea [3, 6] | SAE with fatal outcome: Tumor Lysis syndrome [3, 6]
6 (4.0) n (%): Best Overall Response: Unknown [2]
5 (3.4) n (%): Serious adverse event: Small intestinal obstruction [3, 4]
6 (4.1) n (%): SAEs Related to Any Treatment [3, 5] | SAEs Related to Lutathera [3, 5]
137 (90.7) n (%): Disease Control Rate (DCR: CR+PR+SD+Non-CR/Non-PD) [2]
not yet been reached: median PFS (midgut carcinoid tumors)
24 (16.3) n (%): SAEs [3, 5] | Serious adverse events: Number of subjects with at least one event [3, 5]
30 (20.4) n (%): SAEs [3, 4] | Serious adverse events: Number of subjects with at least one event [3, 4]
